Patent US20140072613A1, “Compositions and Methods for Treating Cutaneous Scarring” (priority 2012, published 2014)

Tests used:
Assay in all cases: cell-based or functional assay
[1] = target: TrkA(h) (human) (UniProt P04629)
[2] = target: T1, MST1(h) (human) (UniProt Q13043)
T1 sequence (looked up): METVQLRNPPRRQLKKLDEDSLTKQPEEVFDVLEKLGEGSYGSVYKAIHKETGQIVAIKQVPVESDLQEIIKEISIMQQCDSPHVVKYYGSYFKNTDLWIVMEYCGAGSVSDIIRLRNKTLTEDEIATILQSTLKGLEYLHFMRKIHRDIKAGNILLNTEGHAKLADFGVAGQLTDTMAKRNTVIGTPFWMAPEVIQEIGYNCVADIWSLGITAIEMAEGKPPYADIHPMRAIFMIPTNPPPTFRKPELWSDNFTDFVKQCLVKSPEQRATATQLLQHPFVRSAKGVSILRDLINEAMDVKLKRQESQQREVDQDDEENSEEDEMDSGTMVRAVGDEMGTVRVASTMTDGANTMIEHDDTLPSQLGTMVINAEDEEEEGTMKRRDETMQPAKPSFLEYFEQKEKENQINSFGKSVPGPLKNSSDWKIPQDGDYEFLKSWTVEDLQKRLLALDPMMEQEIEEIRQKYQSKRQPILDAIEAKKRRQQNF

[3] = target: EphB4(h) (human) (UniProt P54760)
[4] = target: PKCα(h) (human) (UniProt P17252)
[5] = target: ErbB4(h) (human) (UniProt Q15303)
[6] = target: T2, PrKX(h) (human) (UniProt P51817)
T2 sequence (looked up): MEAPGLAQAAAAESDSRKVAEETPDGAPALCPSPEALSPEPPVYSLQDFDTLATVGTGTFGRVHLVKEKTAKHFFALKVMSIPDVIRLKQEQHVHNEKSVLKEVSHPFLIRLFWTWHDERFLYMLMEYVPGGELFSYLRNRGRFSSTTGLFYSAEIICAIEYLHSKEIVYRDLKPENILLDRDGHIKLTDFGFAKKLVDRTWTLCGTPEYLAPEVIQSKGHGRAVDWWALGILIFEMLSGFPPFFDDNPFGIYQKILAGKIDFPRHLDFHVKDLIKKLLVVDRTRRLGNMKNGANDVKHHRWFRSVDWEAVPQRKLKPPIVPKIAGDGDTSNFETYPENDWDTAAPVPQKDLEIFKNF

[7] = target: T3, Ret(V804L)(h) (human) (UniProt P07949)
T3 sequence (looked up): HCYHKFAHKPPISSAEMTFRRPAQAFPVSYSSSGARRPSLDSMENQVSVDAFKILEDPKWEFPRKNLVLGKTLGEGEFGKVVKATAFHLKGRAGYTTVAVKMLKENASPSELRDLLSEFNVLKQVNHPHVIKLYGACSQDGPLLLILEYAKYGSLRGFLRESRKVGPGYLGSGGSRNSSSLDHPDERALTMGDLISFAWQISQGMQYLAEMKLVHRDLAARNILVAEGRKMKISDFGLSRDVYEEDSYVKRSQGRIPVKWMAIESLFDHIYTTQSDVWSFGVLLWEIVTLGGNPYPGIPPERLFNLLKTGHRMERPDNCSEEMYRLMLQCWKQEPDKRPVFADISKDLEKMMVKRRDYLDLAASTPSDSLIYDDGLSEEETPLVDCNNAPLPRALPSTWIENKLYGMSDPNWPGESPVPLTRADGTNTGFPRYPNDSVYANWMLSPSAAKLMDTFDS

[8] = target: T4, IRAK4(h) (human) (UniProt Q9NWZ3)
T4 sequence (looked up): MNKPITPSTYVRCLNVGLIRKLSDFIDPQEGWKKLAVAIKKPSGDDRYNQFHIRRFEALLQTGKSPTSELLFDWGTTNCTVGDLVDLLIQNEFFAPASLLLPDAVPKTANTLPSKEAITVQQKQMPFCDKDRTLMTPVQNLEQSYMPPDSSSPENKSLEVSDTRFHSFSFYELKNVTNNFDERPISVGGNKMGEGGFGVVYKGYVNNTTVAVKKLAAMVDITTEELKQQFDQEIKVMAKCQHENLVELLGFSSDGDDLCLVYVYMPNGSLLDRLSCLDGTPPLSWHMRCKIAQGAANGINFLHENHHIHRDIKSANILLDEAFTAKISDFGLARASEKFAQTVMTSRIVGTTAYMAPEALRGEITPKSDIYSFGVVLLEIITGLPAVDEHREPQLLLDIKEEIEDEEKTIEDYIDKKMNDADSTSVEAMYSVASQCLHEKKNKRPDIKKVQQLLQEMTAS

[9] = target: T5, TAO3(h) (human) (UniProt Q9H2K8)
T5 sequence (looked up): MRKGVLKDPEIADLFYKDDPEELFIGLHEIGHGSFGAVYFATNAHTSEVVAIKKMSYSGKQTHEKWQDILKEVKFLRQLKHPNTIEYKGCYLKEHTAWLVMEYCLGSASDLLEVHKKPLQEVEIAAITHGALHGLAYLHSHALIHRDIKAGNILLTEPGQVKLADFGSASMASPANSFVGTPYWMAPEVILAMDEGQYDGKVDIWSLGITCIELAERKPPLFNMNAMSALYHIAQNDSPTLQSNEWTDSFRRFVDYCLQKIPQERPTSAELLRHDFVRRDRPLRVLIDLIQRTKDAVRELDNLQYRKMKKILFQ

[10] = target: SRPK1(h) (human) (UniProt Q96SB4)
[11] = target: PAK5(h) (human) (UniProt Q9P286)
[12] = target: DAPK1(h) (human) (UniProt P53355)
[13] = target: IR(h), activated (human) (UniProt P06213)
[14] = target: PTK5(h) (human) (UniProt P42685)
[15] = target: Pim-3(h) (human) (UniProt Q86V86)
[16] = target: CHK2(R145W)(h) (human) (UniProt O96017)
CHK2(R145W)(h) (human), sequence (O96017 5-543 R145W limits assumed): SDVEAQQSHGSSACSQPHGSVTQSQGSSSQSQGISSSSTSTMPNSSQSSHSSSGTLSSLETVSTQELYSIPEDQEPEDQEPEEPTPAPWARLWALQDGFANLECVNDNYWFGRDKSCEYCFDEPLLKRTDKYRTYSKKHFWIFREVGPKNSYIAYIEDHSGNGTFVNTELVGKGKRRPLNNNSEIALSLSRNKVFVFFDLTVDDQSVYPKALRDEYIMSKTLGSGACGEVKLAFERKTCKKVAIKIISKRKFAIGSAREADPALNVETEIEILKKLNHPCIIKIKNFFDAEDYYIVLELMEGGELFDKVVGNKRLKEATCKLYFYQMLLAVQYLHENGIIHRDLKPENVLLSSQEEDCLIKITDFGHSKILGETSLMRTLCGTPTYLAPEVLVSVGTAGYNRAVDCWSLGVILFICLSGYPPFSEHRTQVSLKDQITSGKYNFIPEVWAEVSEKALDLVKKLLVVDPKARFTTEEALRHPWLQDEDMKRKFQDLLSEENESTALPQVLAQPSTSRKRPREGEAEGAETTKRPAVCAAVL

ErbB4(h) (human), sequence (Q15303 706-991 limits assumed): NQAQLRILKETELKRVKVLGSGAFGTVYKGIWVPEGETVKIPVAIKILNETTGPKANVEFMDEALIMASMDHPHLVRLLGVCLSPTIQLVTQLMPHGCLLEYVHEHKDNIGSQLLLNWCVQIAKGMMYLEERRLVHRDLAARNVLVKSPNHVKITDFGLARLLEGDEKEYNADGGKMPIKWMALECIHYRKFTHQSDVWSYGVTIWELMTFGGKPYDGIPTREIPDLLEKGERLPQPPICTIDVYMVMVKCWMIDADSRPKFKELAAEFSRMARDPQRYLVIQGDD
TrkA(h) (human), sequence (P04629 441-796 limits assumed): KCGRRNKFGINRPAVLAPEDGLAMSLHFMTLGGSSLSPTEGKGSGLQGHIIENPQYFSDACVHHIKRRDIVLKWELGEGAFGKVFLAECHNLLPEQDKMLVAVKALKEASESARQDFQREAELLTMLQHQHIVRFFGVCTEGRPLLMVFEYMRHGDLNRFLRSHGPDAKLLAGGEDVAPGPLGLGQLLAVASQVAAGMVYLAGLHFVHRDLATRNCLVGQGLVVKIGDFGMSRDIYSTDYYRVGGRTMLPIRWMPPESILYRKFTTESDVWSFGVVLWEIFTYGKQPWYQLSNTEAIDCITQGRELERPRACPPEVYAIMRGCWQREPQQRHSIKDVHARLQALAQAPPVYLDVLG
SRPK1(h) (human), sequence (Q96SB4 whole entry): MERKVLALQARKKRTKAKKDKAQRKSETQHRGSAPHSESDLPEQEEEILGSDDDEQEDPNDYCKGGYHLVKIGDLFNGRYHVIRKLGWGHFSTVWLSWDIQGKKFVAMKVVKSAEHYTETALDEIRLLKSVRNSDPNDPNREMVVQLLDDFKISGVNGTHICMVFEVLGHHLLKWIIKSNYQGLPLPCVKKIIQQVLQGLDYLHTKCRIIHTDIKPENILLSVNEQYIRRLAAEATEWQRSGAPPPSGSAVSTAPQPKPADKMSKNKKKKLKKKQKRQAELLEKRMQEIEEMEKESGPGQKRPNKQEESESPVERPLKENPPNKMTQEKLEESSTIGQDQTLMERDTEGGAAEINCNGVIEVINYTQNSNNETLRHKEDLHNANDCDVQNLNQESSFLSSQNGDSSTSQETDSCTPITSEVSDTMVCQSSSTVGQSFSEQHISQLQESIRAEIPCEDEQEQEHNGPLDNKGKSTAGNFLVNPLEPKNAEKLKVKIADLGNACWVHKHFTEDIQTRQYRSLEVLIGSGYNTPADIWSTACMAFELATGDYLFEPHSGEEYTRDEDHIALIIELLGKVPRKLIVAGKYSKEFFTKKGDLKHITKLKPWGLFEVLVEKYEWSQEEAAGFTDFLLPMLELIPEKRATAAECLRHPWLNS
PAK5(h) (human), sequence (Q9P286 whole entry): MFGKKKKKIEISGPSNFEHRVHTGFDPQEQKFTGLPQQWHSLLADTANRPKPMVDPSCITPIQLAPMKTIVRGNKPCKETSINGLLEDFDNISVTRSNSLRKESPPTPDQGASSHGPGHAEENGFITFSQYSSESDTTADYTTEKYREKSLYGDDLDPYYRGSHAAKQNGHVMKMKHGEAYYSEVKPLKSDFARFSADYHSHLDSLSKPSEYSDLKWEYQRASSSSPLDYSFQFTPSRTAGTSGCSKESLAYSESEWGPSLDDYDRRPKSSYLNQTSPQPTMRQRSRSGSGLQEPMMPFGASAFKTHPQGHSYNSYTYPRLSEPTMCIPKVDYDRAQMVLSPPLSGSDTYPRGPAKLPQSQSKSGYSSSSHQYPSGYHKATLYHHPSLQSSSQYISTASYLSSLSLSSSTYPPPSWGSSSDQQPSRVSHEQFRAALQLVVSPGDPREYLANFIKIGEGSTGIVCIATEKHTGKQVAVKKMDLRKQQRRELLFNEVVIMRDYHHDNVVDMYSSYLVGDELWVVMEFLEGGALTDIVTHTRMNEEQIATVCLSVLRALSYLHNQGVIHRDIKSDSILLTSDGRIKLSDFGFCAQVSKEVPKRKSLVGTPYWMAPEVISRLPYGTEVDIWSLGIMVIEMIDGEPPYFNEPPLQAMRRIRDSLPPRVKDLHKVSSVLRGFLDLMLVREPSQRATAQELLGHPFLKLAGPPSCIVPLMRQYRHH
IR(h), activated (human), sequence (P06213 1005-1310 limits assumed): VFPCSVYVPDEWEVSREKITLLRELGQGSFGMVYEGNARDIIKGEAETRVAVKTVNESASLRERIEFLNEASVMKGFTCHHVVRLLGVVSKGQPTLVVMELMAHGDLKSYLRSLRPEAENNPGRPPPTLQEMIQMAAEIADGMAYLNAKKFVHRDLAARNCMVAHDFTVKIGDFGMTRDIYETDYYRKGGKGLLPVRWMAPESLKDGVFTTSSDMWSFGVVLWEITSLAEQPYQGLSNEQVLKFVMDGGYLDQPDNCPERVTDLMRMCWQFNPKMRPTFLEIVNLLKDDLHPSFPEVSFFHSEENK
PTK5(h) (human), sequence (P42685 whole entry): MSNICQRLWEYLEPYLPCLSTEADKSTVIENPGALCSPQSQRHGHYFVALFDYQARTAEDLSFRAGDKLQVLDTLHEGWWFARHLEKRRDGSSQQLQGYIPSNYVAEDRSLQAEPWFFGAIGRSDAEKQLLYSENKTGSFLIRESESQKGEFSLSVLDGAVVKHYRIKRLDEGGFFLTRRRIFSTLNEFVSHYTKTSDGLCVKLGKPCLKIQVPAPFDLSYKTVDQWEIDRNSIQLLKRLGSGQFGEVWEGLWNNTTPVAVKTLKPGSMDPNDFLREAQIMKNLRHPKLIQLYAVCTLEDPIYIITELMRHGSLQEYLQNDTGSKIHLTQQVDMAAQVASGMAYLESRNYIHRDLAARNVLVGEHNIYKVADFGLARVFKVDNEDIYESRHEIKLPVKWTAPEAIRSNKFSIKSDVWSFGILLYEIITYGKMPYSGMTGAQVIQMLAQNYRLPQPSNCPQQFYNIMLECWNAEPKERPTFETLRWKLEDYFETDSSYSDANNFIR
EphB4(h) (human), sequence (P54760 561-987 limits assumed): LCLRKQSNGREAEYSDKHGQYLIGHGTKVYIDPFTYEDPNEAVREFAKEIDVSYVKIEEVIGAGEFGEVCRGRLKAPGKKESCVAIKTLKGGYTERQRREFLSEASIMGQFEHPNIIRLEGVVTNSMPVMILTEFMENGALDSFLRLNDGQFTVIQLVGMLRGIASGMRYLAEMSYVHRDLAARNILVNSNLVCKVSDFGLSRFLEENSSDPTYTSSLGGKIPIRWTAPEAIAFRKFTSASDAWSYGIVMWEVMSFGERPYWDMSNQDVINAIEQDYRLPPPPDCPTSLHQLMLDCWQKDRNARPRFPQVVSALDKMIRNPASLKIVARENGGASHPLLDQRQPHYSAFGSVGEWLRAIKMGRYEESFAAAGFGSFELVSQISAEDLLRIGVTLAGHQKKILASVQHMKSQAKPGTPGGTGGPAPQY
DAPK1(h) (human), sequence (P53355 1-363 limits assumed): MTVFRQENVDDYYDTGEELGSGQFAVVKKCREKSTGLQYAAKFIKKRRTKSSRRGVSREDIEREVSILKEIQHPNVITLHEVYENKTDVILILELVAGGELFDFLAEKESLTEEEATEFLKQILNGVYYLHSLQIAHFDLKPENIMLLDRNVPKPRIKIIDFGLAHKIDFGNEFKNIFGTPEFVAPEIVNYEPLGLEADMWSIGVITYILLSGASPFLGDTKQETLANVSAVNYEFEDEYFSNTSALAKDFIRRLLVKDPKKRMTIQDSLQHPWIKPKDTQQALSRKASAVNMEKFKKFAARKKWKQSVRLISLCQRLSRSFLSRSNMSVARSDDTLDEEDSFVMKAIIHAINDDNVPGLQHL

% activity, 100 µM [1]: 24%
% activity, 100 µM [2]: 3%
% activity, 100 µM [3]: 38%
% activity, 100 µM [4]: 3%
% activity, 100 µM [5]: 2%
% activity, 100 µM [6]: 57%
% activity, 100 µM [7]: 20%
% activity, 100 µM [8]: 3%
% activity, 100 µM [9]: 12%
% activity, 100 µM [10]: 80%
% activity, 100 µM [11]: 125%
% activity, 100 µM [12]: 0%
% activity, 100 µM [13]: 90%
% activity, 100 µM [14]: 96%
% activity, 100 µM [15]: 37%
% activity, 100 µM [16]: 3%
Substance: MMI-0500 (peptide)
